This note sets out measurements from patent US20050196797.

Data set [1] relates to SMGBP1 (SMG Binding Protein 1).
Data set [2] has as its system protein having a molecular weight of 70 kDa (p70).

SMGBP1 (SMG Binding Protein 1), sequence (chain, as listed by the source): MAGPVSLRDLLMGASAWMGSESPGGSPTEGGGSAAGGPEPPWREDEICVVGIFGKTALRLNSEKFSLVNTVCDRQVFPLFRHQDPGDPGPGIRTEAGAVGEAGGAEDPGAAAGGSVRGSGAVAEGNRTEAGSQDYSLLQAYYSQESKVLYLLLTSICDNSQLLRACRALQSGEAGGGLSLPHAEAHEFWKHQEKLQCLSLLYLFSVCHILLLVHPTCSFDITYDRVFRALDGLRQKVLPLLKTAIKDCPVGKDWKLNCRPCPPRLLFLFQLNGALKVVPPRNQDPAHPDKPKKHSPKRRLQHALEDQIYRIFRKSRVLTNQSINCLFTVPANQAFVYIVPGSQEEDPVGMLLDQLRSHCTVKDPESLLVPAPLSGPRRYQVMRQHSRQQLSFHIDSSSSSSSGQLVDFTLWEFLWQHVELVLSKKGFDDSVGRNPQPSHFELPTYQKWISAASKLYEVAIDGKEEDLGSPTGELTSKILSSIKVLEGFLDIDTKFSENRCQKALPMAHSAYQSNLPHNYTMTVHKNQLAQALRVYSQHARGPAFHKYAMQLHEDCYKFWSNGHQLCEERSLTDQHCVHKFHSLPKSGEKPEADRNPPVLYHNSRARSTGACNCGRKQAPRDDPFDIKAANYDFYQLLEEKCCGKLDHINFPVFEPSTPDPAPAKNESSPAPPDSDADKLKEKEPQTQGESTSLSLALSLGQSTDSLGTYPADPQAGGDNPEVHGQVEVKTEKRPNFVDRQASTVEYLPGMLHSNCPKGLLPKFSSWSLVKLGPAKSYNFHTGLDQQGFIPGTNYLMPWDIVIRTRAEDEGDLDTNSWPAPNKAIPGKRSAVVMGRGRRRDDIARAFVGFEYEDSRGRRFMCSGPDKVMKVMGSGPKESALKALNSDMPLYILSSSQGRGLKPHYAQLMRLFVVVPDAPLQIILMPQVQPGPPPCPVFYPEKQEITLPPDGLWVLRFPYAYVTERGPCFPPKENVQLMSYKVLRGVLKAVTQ

With human SMG-1 (hSMG-1), the “phosphorylation in the hSMG-1 immunoprecipitate (32P autoradiography)” value in data set [1] is “a protein having a molecular weight of 130 kDa (p130) and a protein having a molecular weight of 70 kDa (p70), were detected as phosphorylated proteins. The patterns of phosphorylation thereof accorded exactly with those of autophosphorylation of hSMG-1”; in data set [2], “a protein having a molecular weight of 130 kDa (p130) and a protein having a molecular weight of 70 kDa (p70), were detected as phosphorylated proteins. The patterns of phosphorylation thereof accorded exactly with those of autophosphorylation of hSMG-1”.
